Assay results from patent publication US10064928B2, “Peptides and combination of peptides for use in immunotherapy against CLL and other cancers” (IMMATICS BIOTECHNOLOGIES GMBH, priority 2015, dated 2018).

target: HLA-A*02:01 (Homo sapiens, UniProt P04439, D140Y/D185E/D98H/E176V/E277Q/G131W/G231S/I119V/I121R/I166T/I218V/L300P/L318F/N151K/N90K/P208A/P217A/Q86G/Q94H/R138H/R169H/T345S); test: MHC binding assay (UV-ligand exchange, beta2m ELISA); conditions: binding of HLA-class I restricted peptides to HLA-A*02:01, β2m ELISA
Summary of the method: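 UV-exchange pMHC monomers, 100-fold diluted → streptavidin capture 1 h 37 °C → HRP anti-β2m 2 ug/ml 1 h 37 °C → TMB, A450. Yield from HLA-A*02:01/MLA-001 monomer standard curve, 15-500 ng/ml. Only stably bound peptides keep β2m-containing complexes intact.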

**Q.** With “216 (WLAGDVPAA; listed as Homo sapiens) [compound 216]” as the substance, how does the “Peptide Exchange (MHC class I binding score, peptide exchange yield)” value (“Peptide Exchange” below) read?
**A.** “+++” (≥50 = +++)

**Q.** How did the “Peptide Exchange” value turn out when “217 (ALDEPPYLTV; listed as Homo sapiens) [compound 217]” was run?
**A.** “+++” (≥50 = +++)

**Q.** With “218 (ALGEEWKGYVV; listed as Homo sapiens) [compound 218]” as the substance, how does the “Peptide Exchange” value read?
**A.** “++” (≥20% = ++)

**Q.** With “219 (ALLNLLESA; listed as Homo sapiens) [compound 219]” as the substance, how does the “Peptide Exchange” value read?
**A.** “+++” (≥50 = +++)

**Q.** With “221 (ALVSTIIMV; listed as Homo sapiens) [compound 221]” as the substance, how does the “Peptide Exchange” value read?
**A.** “+” (≥10% = +)

**Q.** For “222 (ALWELSLKI; listed as Homo sapiens) [compound 222]”, which “Peptide Exchange” value is on record?
**A.** “+++” (≥50 = +++)

**Q.** With “223 (ALWVSQPPEI; listed as Homo sapiens) [compound 223]” as the substance, how does the “Peptide Exchange” value read?
**A.** “+++” (≥50 = +++)

**Q.** How did the “Peptide Exchange” value turn out when “224 (AMEALVVEV; listed as Homo sapiens) [compound 224]” was run?
**A.** “+++” (≥50 = +++)

**Q.** “225 (ILQERELLPV; listed as Homo sapiens) [compound 225]” was tested. Which “Peptide Exchange” value did it give?
**A.** “+++” (≥50 = +++)

**Q.** How did the “Peptide Exchange” value turn out when “226 (AMNISVPQV; listed as Homo sapiens) [compound 226]” was run?
**A.** “+++” (≥50 = +++)

**Q.** Which “Peptide Exchange” value does the source give for “227 (FLAEASVMTQL; listed as Homo sapiens) [compound 227]” here?
**A.** “+++” (≥50 = +++)

**Q.** For “228 (FLGGLSPGV; listed as Homo sapiens) [compound 228]”, which “Peptide Exchange” value is on record?
**A.** “+++” (≥50 = +++)

**Q.** For “229 (FLLNLQNCHL; listed as Homo sapiens) [compound 229]”, which “Peptide Exchange” value is on record?
**A.** “++++” (≥75% = ++++)

**Q.** For “230 (FLQDSKVIFV; listed as Homo sapiens) [compound 230]”, which “Peptide Exchange” value is on record?
**A.** “+++” (≥50 = +++)

**Q.** How did the “Peptide Exchange” value turn out when “231 (FLYIRQLAI; listed as Homo sapiens) [compound 231]” was run?
**A.** “+++” (≥50 = +++)

**Q.** For “232 (FMHQIIDQV; listed as Homo sapiens) [compound 232]”, which “Peptide Exchange” value is on record?
**A.** “++++” (≥75% = ++++)

**Q.** How did the “Peptide Exchange” value turn out when “233 (GIIDINVRL; listed as Homo sapiens) [compound 233]” was run?
**A.** “++” (≥20% = ++)

**Q.** With “234 (GLDDAEYAL; listed as Homo sapiens) [compound 234]” as the substance, how does the “Peptide Exchange” value read?
**A.** “++” (≥20% = ++)

**Q.** “235 (GLDDLLLFL; listed as Homo sapiens) [compound 235]” was tested. Which “Peptide Exchange” value did it give?
**A.** “+++” (≥50 = +++)

**Q.** Which “Peptide Exchange” value does the source give for “236 (GLLESGRHYL; listed as Homo sapiens) [compound 236]” here?
**A.** “+++” (≥50 = +++)

**Q.** With “237 (GLQENLDVVV; listed as Homo sapiens) [compound 237]” as the substance, how does the “Peptide Exchange” value read?
**A.** “++++” (≥75% = ++++)

**Q.** With “238 (GLVETELQL; listed as Homo sapiens) [compound 238]” as the substance, how does the “Peptide Exchange” value read?
**A.** “+++” (≥50 = +++)

**Q.** How did the “Peptide Exchange” value turn out when “239 (ILAGEMLSV; listed as Homo sapiens) [compound 239]” was run?
**A.** “+++” (≥50 = +++)

**Q.** With “241 (ILGDILLKV; listed as Homo sapiens) [compound 241]” as the substance, how does the “Peptide Exchange” value read?
**A.** “+++” (≥50 = +++)

**Q.** With “242 (ILLGIQELL; listed as Homo sapiens) [compound 242]” as the substance, how does the “Peptide Exchange” value read?
**A.** “+++” (≥50 = +++)

**Q.** With “243 (ILPTLEKELFL; listed as Homo sapiens) [compound 243]” as the substance, how does the “Peptide Exchange” value read?
**A.** “+++” (≥50 = +++)

**Q.** How did the “Peptide Exchange” value turn out when “244 (ILQALAVHL; listed as Homo sapiens) [compound 244]” was run?
**A.** “+++” (≥50 = +++)

**Q.** With “245 (KIMDYSLLLGV; listed as Homo sapiens) [compound 245]” as the substance, how does the “Peptide Exchange” value read?
**A.** “++++” (≥75% = ++++)

**Q.** How did the “Peptide Exchange” value turn out when “246 (KLDETGVAL; listed as Homo sapiens) [compound 246]” was run?
**A.** “++” (≥20% = ++)

**Q.** “247 (KLKDRLPSI; listed as Homo sapiens) [compound 247]” was tested. Which “Peptide Exchange” value did it give?
**A.** “++” (≥20% = ++)

**Q.** For “248 (KTVEPPISQV; listed as Homo sapiens) [compound 248]”, which “Peptide Exchange” value is on record?
**A.** “++” (≥20% = ++)

**Q.** With “249 (LLPTGVFQV; listed as Homo sapiens) [compound 249]” as the substance, how does the “Peptide Exchange” value read?
**A.** “+++” (≥50 = +++)

**Q.** Which “Peptide Exchange” value does the source give for “250 (LLVQEPDGLMV; listed as Homo sapiens) [compound 250]” here?
**A.** “+++” (≥50 = +++)

**Q.** For “251 (LLYDNVPGA; listed as Homo sapiens) [compound 251]”, which “Peptide Exchange” value is on record?
**A.** “+++” (≥50 = +++)

**Q.** With “252 (NLLDPGSSYLL; listed as Homo sapiens) [compound 252]” as the substance, how does the “Peptide Exchange” value read?
**A.** “+++” (≥50 = +++)

**Q.** How did the “Peptide Exchange” value turn out when “253 (NLWSVDGEVTV; listed as Homo sapiens) [compound 253]” was run?
**A.** “+++” (≥50 = +++)

**Q.** “254 (QLIPKLIFL; listed as Homo sapiens) [compound 254]” was tested. Which “Peptide Exchange” value did it give?
**A.** “+++” (≥50 = +++)

**Q.** For “255 (YLFEEAISM; listed as Homo sapiens) [compound 255]”, which “Peptide Exchange” value is on record?
**A.** “+++” (≥50 = +++)

**Q.** How did the “Peptide Exchange” value turn out when “256 (QLLPVSNVVSV; listed as Homo sapiens) [compound 256]” was run?
**A.** “+++” (≥50 = +++)

**Q.** For “258 (RLDYITAEI; listed as Homo sapiens) [compound 258]”, which “Peptide Exchange” value is on record?
**A.** “+++” (≥50 = +++)

**Q.** With “259 (RLLDEQFAVL; listed as Homo sapiens) [compound 259]” as the substance, how does the “Peptide Exchange” value read?
**A.** “+++” (≥50 = +++)

**Q.** Which “Peptide Exchange” value does the source give for “260 (SLDDVEGMSV; listed as Homo sapiens) [compound 260]” here?
**A.** “+++” (≥50 = +++)

**Q.** For “261 (SLVEAQGWLV; listed as Homo sapiens) [compound 261]”, which “Peptide Exchange” value is on record?
**A.** “+++” (≥50 = +++)

**Q.** How did the “Peptide Exchange” value turn out when “262 (SLWNAGTSV; listed as Homo sapiens) [compound 262]” was run?
**A.** “+++” (≥50 = +++)

**Q.** “263 (SQWEDIHVV; listed as Homo sapiens) [compound 263]” was tested. Which “Peptide Exchange” value did it give?
**A.** “+++” (≥50 = +++)

**Q.** For “264 (TILDYINVV; listed as Homo sapiens) [compound 264]”, which “Peptide Exchange” value is on record?
**A.** “+++” (≥50 = +++)

**Q.** Which “Peptide Exchange” value does the source give for “265 (TLLADDLEIKL; listed as Homo sapiens) [compound 265]” here?
**A.** “+++” (≥50 = +++)

**Q.** With “266 (TLLDQLDTQL; listed as Homo sapiens) [compound 266]” as the substance, how does the “Peptide Exchange” value read?
**A.** “++” (≥20% = ++)

**Q.** With “267 (TLLDWQDSL; listed as Homo sapiens) [compound 267]” as the substance, how does the “Peptide Exchange” value read?
**A.** “+++” (≥50 = +++)

**Q.** “268 (TLLQVFHLL; listed as Homo sapiens) [compound 268]” was tested. Which “Peptide Exchange” value did it give?
**A.** “+++” (≥50 = +++)

**Q.** “269 (TLTDEQFLV; listed as Homo sapiens) [compound 269]” was tested. Which “Peptide Exchange” value did it give?
**A.** “++” (≥20% = ++)

**Q.** For “270 (TVLPVPPLSV; listed as Homo sapiens) [compound 270]”, which “Peptide Exchange” value is on record?
**A.** “+++” (≥50 = +++)

**Q.** With “271 (VIRNIVEAA; listed as Homo sapiens) [compound 271]” as the substance, how does the “Peptide Exchange” value read?
**A.** “++” (≥20% = ++)

**Q.** How did the “Peptide Exchange” value turn out when “272 (VLDELPPLI; listed as Homo sapiens) [compound 272]” was run?
**A.** “+++” (≥50 = +++)

**Q.** Which “Peptide Exchange” value does the source give for “273 (VLGEYSYLL; listed as Homo sapiens) [compound 273]” here?
**A.** “+++” (≥50 = +++)

**Q.** With “274 (VLLEYHIAYL; listed as Homo sapiens) [compound 274]” as the substance, how does the “Peptide Exchange” value read?
**A.** “+++” (≥50 = +++)

**Q.** “275 (VLLFIEHSV; listed as Homo sapiens) [compound 275]” was tested. Which “Peptide Exchange” value did it give?
**A.** “+++” (≥50 = +++)

**Q.** For “276 (VLNDGAPNV; listed as Homo sapiens) [compound 276]”, which “Peptide Exchange” value is on record?
**A.** “+++” (≥50 = +++)

**Q.** Which “Peptide Exchange” value does the source give for “277 (VMILKLPFL; listed as Homo sapiens) [compound 277]” here?
**A.** “++” (≥20% = ++)

**Q.** How did the “Peptide Exchange” value turn out when “278 (YLDDLLPKL; listed as Homo sapiens) [compound 278]” was run?
**A.** “+++” (≥50 = +++)

**Q.** For “279 (YMAPEVVEA; listed as Homo sapiens) [compound 279]”, which “Peptide Exchange” value is on record?
**A.** “+++” (≥50 = +++)

**Q.** For “280 (YTLDSLYWSV; listed as Homo sapiens) [compound 280]”, which “Peptide Exchange” value is on record?
**A.** “+++” (≥50 = +++)

**Q.** With “283 (ILQPMDIHV; listed as Homo sapiens) [compound 283]” as the substance, how does the “Peptide Exchange” value read?
**A.** “+++” (≥50 = +++)

**Q.** For “284 (LLSAAEPVPA; listed as Homo sapiens) [compound 284]”, which “Peptide Exchange” value is on record?
**A.** “++” (≥20% = ++)

**Q.** For “285 (GVATAGCVNEV; listed as Homo sapiens) [compound 285]”, which “Peptide Exchange” value is on record?
**A.** “++++” (≥75% = ++++)

**Q.** “286 (FLLEDLSQKL; listed as Homo sapiens) [compound 286]” was tested. Which “Peptide Exchange” value did it give?
**A.** “+++” (≥50 = +++)
